Tests used:
[1] = molecular target: Geobacillus stearothermophilus IstA (IS5376 transposase, IS21 family) (Geobacillus stearothermophilus); test: cryo-EM structure; IstA mixed 1:1.5 with the pre-cleaved right TIR DNA (5-nt 5' overhang), complex isolated by gel filtration; 50 mM HEPES pH 7.5, 150 mM NaCl, 5 mM MgCl2, 1 mM DTT, 0.005% Tween-20; 3.4 Å, C2 symmetry
[2] = molecular target: T1, IstA-MBP (Geobacillus stearothermophilus, UniProt Q45618 1-400); test: fluorescence anisotropy; apparent Kd; Hill coefficient 3.6; 5 mM Mg2+; Fluorescence anisotropy: 50 mM HEPES pH 7.5, 150 mM NaCl, 5 mM MgCl2, 10% glycerol, 1 mM beta-mercaptoethanol, 0.1 mg/ml BSA, 5 nM DNA, 37 °C, 5 min; conditions: protein: recombinant; tags: C-terminal TEV-cleavable MBP-His6; label: 5'-FAM on strand 1; blunt
T1 sequence: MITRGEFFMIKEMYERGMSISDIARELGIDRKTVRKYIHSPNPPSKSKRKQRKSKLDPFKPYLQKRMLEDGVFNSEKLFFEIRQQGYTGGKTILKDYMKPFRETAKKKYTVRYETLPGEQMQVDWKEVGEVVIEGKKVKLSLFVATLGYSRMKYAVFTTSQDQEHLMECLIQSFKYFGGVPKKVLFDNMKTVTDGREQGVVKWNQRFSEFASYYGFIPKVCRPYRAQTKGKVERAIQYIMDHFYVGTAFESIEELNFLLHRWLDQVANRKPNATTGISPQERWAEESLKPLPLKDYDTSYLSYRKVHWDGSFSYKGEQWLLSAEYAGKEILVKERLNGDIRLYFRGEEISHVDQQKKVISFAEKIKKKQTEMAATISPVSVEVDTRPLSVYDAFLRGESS

[3] = molecular target: T2, IstA (Geobacillus stearothermophilus, UniProt Q45618 1-400); test: cryo-EM structure (3.4 A); 5 mM Mg2+; IstA tetramer with two DNA ends; Fluorescence anisotropy: 50 mM HEPES pH 7.5, 150 mM NaCl, 5 mM MgCl2, 10% glycerol, 1 mM beta-mercaptoethanol, 0.1 mg/ml BSA, 5 nM DNA, 37 °C, 5 min; conditions: protein: recombinant; tags: MBP-His6 tag removed by TEV; 5' overhang 5 nt on strand 2; two duplex copies per tetramer
T2 sequence: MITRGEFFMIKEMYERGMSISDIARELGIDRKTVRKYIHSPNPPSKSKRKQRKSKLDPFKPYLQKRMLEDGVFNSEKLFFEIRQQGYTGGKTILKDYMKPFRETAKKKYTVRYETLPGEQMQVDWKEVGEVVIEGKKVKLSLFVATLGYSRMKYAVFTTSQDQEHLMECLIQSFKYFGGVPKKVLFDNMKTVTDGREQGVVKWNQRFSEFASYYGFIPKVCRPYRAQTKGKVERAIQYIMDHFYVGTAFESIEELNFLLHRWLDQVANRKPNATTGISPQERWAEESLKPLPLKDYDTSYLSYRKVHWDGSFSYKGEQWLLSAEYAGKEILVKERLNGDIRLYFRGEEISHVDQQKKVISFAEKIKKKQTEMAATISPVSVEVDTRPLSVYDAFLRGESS

[4] = molecular target: T1, IstA-MBP; test: fluorescence anisotropy; apparent Kd; Hill coefficient 2.2; 5 mM Mg2+; Fluorescence anisotropy: 50 mM HEPES pH 7.5, 150 mM NaCl, 5 mM MgCl2, 10% glycerol, 1 mM beta-mercaptoethanol, 0.1 mg/ml BSA, 5 nM DNA, 37 °C, 5 min; conditions: protein: recombinant; tags: C-terminal TEV-cleavable MBP-His6; label: 5'-FAM on strand 1; blunt
[5] = molecular target: T1, IstA-MBP; test: fluorescence anisotropy; apparent Kd; Hill coefficient 1.2; 5 mM Mg2+; Fluorescence anisotropy: 50 mM HEPES pH 7.5, 150 mM NaCl, 5 mM MgCl2, 10% glycerol, 1 mM beta-mercaptoethanol, 0.1 mg/ml BSA, 5 nM DNA, 37 °C, 5 min; conditions: protein: recombinant; tags: C-terminal TEV-cleavable MBP-His6; label: 5'-FAM on strand 1; blunt
[6] = molecular target: T1, IstA-MBP; test: fluorescence anisotropy; apparent Kd; Hill coefficient 1.5; 5 mM Mg2+; Fluorescence anisotropy: 50 mM HEPES pH 7.5, 150 mM NaCl, 5 mM MgCl2, 10% glycerol, 1 mM beta-mercaptoethanol, 0.1 mg/ml BSA, 5 nM DNA, 37 °C, 5 min; conditions: protein: recombinant; tags: C-terminal TEV-cleavable MBP-His6; label: 5'-FAM on strand 1; blunt

In the case of “Geobacillus stearothermophilus IstA (IS5376 transposase, IS21 family) (enzyme)”, the stoichiometry N [1] is reported as 4.

B1: R1-R2 (pre-cleaved full right TIR) (dsDNA)
DNA 1: CCTTCTGGGGAATTTTAAACCGGCGATTTTGGGGAAAAAATAATCGGCCTTGACA
DNA 2: TGTCAAGGCCGATTATTTTTTCCCCAAAATCGCCGGTTTAAAATTCCCCAGAAGG
B1 showed a Kd [2] of 125 nM.

B2: Pre-cleaved right TIR with 5 nt 5' overhang (dsDNA)
DNA 1: CCTTCTGGGGAATTTTAAACCGGCGATTTTGGGGAAAAAATAATCGGCCTTGACA
DNA 2: ATTCATGTCAAGGCCGATTATTTTTTCCCCAAAATCGCCGGTTTAAAATTCCCCAGAAGG
B2: binds [3].

B3: Rd27 (dsDNA)
DNA 1: TGCTAACACGTCGGATCATCGCAAGCA
DNA 2: TGCTTGCGATGATCCGACGTGTTAGCA
B3 showed a Kd [4] of 121 nM.

B4: R1 (27 bp right TIR) (dsDNA)
DNA 1: TTGGGGAAAAAATAATCGGCCTTGACA
DNA 2: TGTCAAGGCCGATTATTTTTTCCCCAA
B4 gave a Kd [5] of 176 nM.

B5: Rd60 (dsDNA)
DNA 1: TGCTTGCGATGATCCGACGTGTTAGCCACGCTGACTAGTTATGCCATGCCTCCCTTCAGG
DNA 2: CCTGAAGGGAGGCATGGCATAACTAGTCAGCGTGGCTAACACGTCGGATCATCGCAAGCA
Work on B5 yielded a Kd [6] of 191 nM.
